Earlier results in patent US7759315B2, “Treatment of inflammatory conditions of the intestine” (CSL Behring AG, priority 2005, dated 2010).
Non-standard residues stand in square brackets, D forms with d. No end group written: not given here. Nal = naphthylalanine (source code Z); Aib = CC(C)(N)C(=O)O

Key:
[1] = percent helicity; for He (%): micelles
LCAT = molecular target: T1, LCAT (Homo sapiens, UniProt P04180)
T1 sequence (P04180 25-440): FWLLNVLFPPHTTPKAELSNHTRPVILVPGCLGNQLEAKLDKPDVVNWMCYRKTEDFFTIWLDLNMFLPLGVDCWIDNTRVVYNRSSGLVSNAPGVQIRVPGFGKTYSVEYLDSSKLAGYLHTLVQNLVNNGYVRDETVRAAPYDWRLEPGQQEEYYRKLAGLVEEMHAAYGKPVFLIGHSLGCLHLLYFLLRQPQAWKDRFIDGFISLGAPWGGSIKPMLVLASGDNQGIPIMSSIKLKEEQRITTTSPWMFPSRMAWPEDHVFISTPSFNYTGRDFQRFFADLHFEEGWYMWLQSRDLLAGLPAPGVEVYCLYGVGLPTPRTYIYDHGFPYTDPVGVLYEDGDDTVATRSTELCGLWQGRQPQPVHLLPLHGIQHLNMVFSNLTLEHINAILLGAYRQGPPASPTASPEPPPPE

Row | Substance | ACTIVITY (%) LCAT (LCAT) | He (%) [1] | He (%) SUVs ([1]; SUVs) | He (%) free ([1]; free peptide)
1 | Ac-PVLDEFREKLNEELEALKQKLK-NH2 [Peptide 75, reference compound] | – | 28% | – | –
2 | EWLEAFYKKVLEKLKELF [Peptide 246, 18AM4 peptide (Rosseneu et al., WO93/25581; Corijn et al., 1993), reference compound] | 4% | 44% | – | –
3 | EWLEAFYKKVLEKLKELF* (Ac-EWLEAFYKKVLEKLKELF-NH2) [Peptide 239, Ac-18AM4-C(O)NH2 peptide (Brasseur, 1993), reference compound] | 11% | 49% | – | –
4 | EWLKAFYEKVLEKLKELF [Peptide 248, [Glu^1.8; Leu^5,11,17]; 18A peptide (Epand et al., 1987), reference compound] | 3% | 45% | – | –
5 | GVLELFENLLERLLDALQKKLK [Peptide 145] | 100% | 51% | – | –
6 | KLKQKLAELLENLLERFLDLVP [Peptide 99] | 2% | 88% | – | –
7 | LDDLLQKWAEAFNQLLKK [Peptide 237, Id-3 peptide (Labeur et al., 1997), reference compound] | 11% | 66% | – | –
8 | PAADAFREAANEAAEAAKQKAK [Peptide 105] | 1% | 28% | – | –
9 | PLLDLFRELLEELKQKLK* (not fully specified (N-terminus, C-terminus); printed as PLLDLFRELLEELKQKLK*) [Peptide 197] | 81% | 70% | – | –
10 | PLLELLKELLQELLEALKQKLK [Peptide 36] | 31% | 100% | – | –
11 | PVLDAFRELLEALAQLKK [Peptide 223] | 8% | 56% | – | –
12 | PVLDEFREKLNEALEALKQKLK [Peptide 94, [A^13]-Consensus 22-mer peptide (Anantharamaiah et al., 1990), reference compound] | 5% | 70% | – | –
13 | PVLDEFREKLNEPLEALKQKLK [Peptide 113] | 0% | 22% | – | –
14 | PVLDEFREKLNERLEALKQKLK [Peptide 109, [R^13]-Consensus 22-mer peptide (Anantharamaiah et al., 1990), reference compound] | 0% | 45% | – | –
15 | PVLDEFREKLNEXLEALKQKLK (PVLDEFREKLNE[Aib]LEALKQKLK; not fully specified (C-terminus)) [Peptide 45] | 24% | 84% | 25% | 24%
16 | PVLDEFREKLNEXWEALKQKLK (PVLDEFREKLNE[Aib]WEALKQKLK; not fully specified (C-terminus)) [Peptide 42] | 25% | 74% | – | –
17 | PVLDEFRELLNEXLEALKQKLK (PVLDEFRELLNE[Aib]LEALKQKLK; not fully specified (C-terminus)) [Peptide 91] | 6% | 100% | – | –
18 | PVLDEFRELLYEXLEALKQKLK (PVLDEFRELLYE[Aib]LEALKQKLK; not fully specified (C-terminus)) [Peptide 70] | 12% | 78% | – | –
19 | PVLDLFKELLNELLEALKQKLK [Peptide 7] | 83% | 89% | – | –

Row | Substance | ACTIVITY (%) LCAT (LCAT) | He (%) [1] | He (%) SUVs ([1]; SUVs) | He (%) free ([1]; free peptide)
20 | PVLDLFNELLRELLEALQKKLK [Peptide 40] | 25% | 84% | – | –
21 | PVLDLFREKLNEXLEALKQKLK (PVLDLFREKLNE[Aib]LEALKQKLK; not fully specified (C-terminus)) [Peptide 46] | 23% | 86% | – | –
22 | PVLDLFRELLEELKQKLK [Peptide 210] | 46% | 63% | – | –
23 | PVLDLFRELLEELLKALKKKLK [Peptide 39] | 25% | 69% | – | –
24 | PVLDLFRELLEELQKKLK [Peptide 220] | 22% | 64% | – | –
25 | PVLDLFRELLEEWKQKLK* (not fully specified (N-terminus, C-terminus); printed as PVLDLFRELLEEWKQKLK*) [Peptide 215] | 38% | 63% | – | –
26 | PVLDLFRELLELLKQKLK [Peptide 217] | 30% | 78% | – | –
27 | PVLDLFRELLNELLEALKQKLK [Peptide 4] | 93% | 95% | – | –
28 | PVLDLFRELLNELLEALKQKLK^† [Peptide 30] | 38% | 90% | – | –
29 | PVLDLFRELLNELLEALKQ~~~ [Peptide 60] | 16% | 83% | – | –
30 | PVLDLFRELLNELLEAZKQKLK (PVLDLFRELLNELLEA[Nal]KQKLK; not fully specified (C-terminus)) [Peptide 10] | 79% | 87% | – | –
31 | PVLDLFRELLNELLEWLKQKLK [Peptide 3] | 98% | 95% | – | –
32 | PVLDLFRELLNELLEZLKQKLK (PVLDLFRELLNELLE[Nal]LKQKLK; not fully specified (C-terminus)) [Peptide 1] | 120% | 85% | – | –
33 | PVLDLFRELLNELLQKLK [Peptide 209] | 47% | 71% | – | –
34 | PVLDLFRELLNEWLEALKQKLK [Peptide 54] | 19% | 71% | – | –
35 | PVLDLFRELLNEXLEAWKQKLK (PVLDLFRELLNE[Aib]LEAWKQKLK; not fully specified (C-terminus)) [Peptide 38] | 29% | 49% | – | –
36 | PVLDLFRELLNEXLWALKQKLK (PVLDLFRELLNE[Aib]LWALKQKLK; not fully specified (C-terminus)) [Peptide 72] | 11% | sp | – | –
37 | PVLDLFRELLNLXLEALKQKLK (PVLDLFRELLNL[Aib]LEALKQKLK; not fully specified (C-terminus)) [Peptide 95] | 5% | sp | – | –
38 | ~~~DEFREKLNEXLEALKQKLK (DEFREKLNE[Aib]LEALKQKLK; not fully specified (C-terminus); printed as ~~~DEFREKLNEXLEALKQKLK) [Peptide 90] | 6% | – | – | –

The next lines start with results.

Row | ACTIVITY (%) LCAT (LCAT) | Substance | He (%) [1] | He (%) SUVs ([1]; SUVs) | He (%) free ([1]; free peptide)
39 | 5% | DWFKAFYDKVAEKFKEAF [Peptide 243] | 64% | – | –
40 | 10% | DWLKAFYDKVAEKLKEAF* (not fully specified (N-terminus, C-terminus); printed as DWLKAFYDKVAEKLKEAF*) [Peptide 240] | 68% | – | –
41 | 4% | DWLKAFYDKVFEKFKEFF [Peptide 245] | 77% | – | –
42 | 5% | DWLKAPYDKVAEKLKEAF (DWLKAFYDKVAEKLKEAF) [Peptide 244, 18A peptide (Anantharamiah et al., 1985), reference compound] | 40% | – | –
43 | 19% | EWLKAFYEKVLEKLKELF* (Ac-EWLKAFYEKVLEKLKELF-NH2) [Peptide 238, Ac-18AMOD-C(O)NH2 peptide (Epand et al., 1987), reference compound] | 72% | – | –
44 | 9% | PVLDEFRELLFEXLEALKQKLK (PVLDEFRELLFE[Aib]LEALKQKLK; not fully specified (C-terminus)) [Peptide 76] | 88% | – | –
45 | 16% | PVLDEWREKLNEXLEALKQKLK (PVLDEWREKLNE[Aib]LEALKQKLK; not fully specified (C-terminus)) [Peptide 62] | 85% | – | –
46 | 51% | PVLDFFRELLNEXLEALKQKLK (PVLDFFRELLNE[Aib]LEALKQKLK; not fully specified (C-terminus)) [Peptide 25] | 82% | – | –
47 | 34% | PVLDLFLELLNEXLEALKQKLK (PVLDLFLELLNE[Aib]LEALKQKLK; not fully specified (C-terminus)) [Peptide 31] | 98% | – | –
48 | 96% | PVLDLFRELLEELKQKLK* (not fully specified (N-terminus, C-terminus); printed as PVLDLFRELLEELKQKLK*) [Peptide 193] | 88% | – | –
49 | 83% | PVLDLFRELLNEGLEALKQKLK [Peptide 8] | 90% | – | –
50 | 40% | PVLDLFRELLNELWEALKQKLK [Peptide 28] | 98% | – | –
51 | 44% | PVLDLFRELLNELZEALKQKLK (PVLDLFRELLNEL[Nal]EALKQKLK; not fully specified (C-terminus)) [Peptide 27] | 92% | – | –
52 | 80% | PVLDLFRELLNEXLEALKQKLK (PVLDLFRELLNE[Aib]LEALKQKLK; not fully specified (C-terminus)) [Peptide 6] | 93% | – | –
53 | 2% | PVLDLFRELLNWXLEALKQKLK (PVLDLFRELLNW[Aib]LEALKQKLK; not fully specified (C-terminus)) [Peptide 101] | sp | – | –
54 | 21% | PVLDLFRELLWEXLEALKQKLK (PVLDLFRELLWE[Aib]LEALKQKLK; not fully specified (C-terminus)) [Peptide 50] | 84% | – | –
